From the RNAGym collection of RNA variant scans (doi:10.1073/pnas.2313332121)

B1: TPR t1 (parent)
chain: GACCAAUCUGCCCUCAGAGCUCGAGAACAUCUUCGGAUGCAGAGGAGGCAGGCUUCGGUGGCGCGAUAGCGCCAACGUCCUCAACCUCCAAUGCAUCCCACCACAUGAUGAUGCCUGAAGAGCCUUGGUUUUUUG

Variants of: B1
Test: polymerase ribozyme fitness, log enrichment relative to wild type (log ratio); higher = more active; in vitro selection for triplet polymerase activity
Summary of the method: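 Only genotypes with ≥10 input reads and ≥1 read per output were kept after Illumina sequencing of input and output libraries. These libraries were PCR-built, transcribed mutants of each subunit of a heterodimeric triplet polymerase ribozyme, each put through one triplicate in vitro selection round with frozen incubation at −7 °C, gel excision of extended constructs, streptavidin-bead capture and RT-PCR. Fitness is a logarithmic ratio of genotype enrichment to wild-type enrichment, from inverse-variance-weighted replicate averages, with the logarithm in base 2.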

Row | Variant | polymerase ribozyme fitness (log ratio)
1 | C62U C88G C114G | -3.23
2 | A6U C12A G61A U78A C80U C86A G120A | -2.58
3 | C8G G35C A50U A118U | -5.01
4 | A27C U55G G57C A111U G122A | -5.04
5 | C53U U59C C89A C104U G117C G128U | -6.6
6 | C13U A29C G52U C104U G120A U131A | -2.05
7 | G47U G135C | -1.39
8 | A111G C114G C123U | -6.41
9 | G93A | -0.498
10 | C12G U14A | -1.56
11 | A27U G44U C101G A111C | -7.22
12 | G23U A26G A37U G69U | -5.18
13 | U9A A83G | -0.27
14 | C115A U126C | -0.397
15 | C53A G60A C94A G120A | 0.047
16 | A24G A111G | -2.06
17 | G69U C79G U109G | -2.86
18 | G44U G120U | -0.505
19 | A43U U55A G127A | -3.12
20 | A66U G93C C114G | -5.41
21 | U87A C99U | -3.14
22 | C11U C12U C15U C53A C80U C88U C104U A111U A118G | -6.72
23 | A95G C123G | 1.72
24 | A27C C72G U112C G120C U126C U131A | -4.66

Row | Variant | polymerase ribozyme fitness (log ratio)
25 | A5U C13G C40U U55A U59A C82G | -2.63
26 | A84U G93A | -1.11
27 | U14G G44C C80U | -3.74
28 | C22U G39A | -4.66
29 | C22A A41U A90U A121G | -5.71
30 | G52U U129G | -2.57
31 | G44A G77A U106C G117A | -3.03
32 | C8U G61U C88G U109A U133C | -4.61
33 | C15A G61A A83U G117C | -5.31
34 | G42C C72G | -1.76
35 | A46U G63A C85G A121C | -1.37
36 | C34U C114U U131A | -4.04
37 | C73A G120A | 0.528
38 | G47U C64U A121U | 0.804
39 | C82U U112A U130G | 0.499
40 | U33G G39A C72G A84G A111U | -6.45
41 | U9A A46C A50C C82G | -0.971
42 | G45C C82A C101U | -2.68
43 | C53G C123U | 0.236
44 | A6U G47A C70U C94U | -1.74
45 | C72G C85G A100C A121C | -1.55
46 | C8G A43U A95U U109A C123G | -5.23
47 | C79G C89A G127U | -4.91
48 | C8G C20U G61A C101U | -0.517

Row | Variant | polymerase ribozyme fitness (log ratio)
49 | G44C G57U G63U | -2.08
50 | A18G C22G C104A | -5.54
51 | C11G G39A C124A | 1.48
52 | C13G G117A | -1.95
53 | A50C U87C | -0.237
54 | U7A C123G | 2.34
55 | A16U G17A G117A | -2.04
56 | G42A C88A A121U | 0.406
57 | A16G G60U G107U C124G | -4.06
58 | C3A C53U U55A C73A G117A | -4.29
59 | G45A G51A C79A | -3.77
60 | U9G C13G | 0.0659
61 | A27G C49G | -2.37
62 | A43G C49A | -2.37
63 | A103C G107A U112G G113A | -6.72
64 | C8G C20G C72U A95G | -3.64
65 | C53U C70G | -4.36
66 | C73U U133A | 0.4
67 | A46C C56A G69U | -1.31
68 | C13G G71U | -1.79
69 | G42C A43G A84C C114A | -2
70 | C13G G120C | 0.441
71 | U7A G52A A111C | 0.419
72 | G60A C62U U112G | 0.38

Row | Variant | polymerase ribozyme fitness (log ratio)
73 | A6U C13A C22G A75U | -4.17
74 | C4G C88A | -2.51
75 | C3G C12G | -0.885
76 | G17A G61U C85A C97U | -4.18
77 | A50C C62U C94U | -0.553
78 | C56A G69A | -3.3
79 | G10C C114U | -2.38
80 | A66U C98U | -1.9
81 | C72A A90U C101A G122A | -3.86
82 | A2G C12U C101U A105U C115A | -1.02
83 | C62U U78A C89U G117A | -2.6
84 | A91G C102A C104A U109A | -5.59
85 | C3U C56U C115U G127U | -3.57
86 | C85U C94U | -1.2
87 | G23U G120A | -6.57
88 | U9G G45A C49U C72U G93A | -1.56
89 | C20A G36A A84G A118G | -5.67
90 | C11A G45U A95C G113U | -7.14
91 | C56A G120C | 0.484
92 | C53U G63C | -2.11
93 | A46U U96C C115U | -2.77
94 | A75U U81A G113C U130C | -3.89
95 | C73U A100U | -0.959
96 | C40U G44A G63A | -1.6

Row | Variant | polymerase ribozyme fitness (log ratio)
97 | C20A C73G | -3.25
98 | G48A C86A | -0.909
99 | G48A C86U | -0.5
100 | C99A U112A G120A | -5.93
101 | G63C G117C C123G | -2.31
102 | G61U A68U U87A C114G | -6.91
103 | G39U G52C C53A A83U | -3.01
104 | A6G C70A C97U | -1.59
105 | G122U U130G | -0.749
106 | C85U G110C C115U A121G | -6.18
107 | A91U U132C | -1.79
108 | C72A A108U | -5.64
109 | C40U C70A C85U G135U | -4.91
110 | C34A U55G G77A | -4.67
111 | A6U A18U G93C C102U | -6.29
112 | C62A C72U G93C | -1.64
113 | G51A C56U G93U | -3.4
114 | G42U U87G | -0.907
115 | C11A C12G C20U U55A C56U G93C | -4.53
116 | C12U A16G C20U C64A A84U U112G G113U | -7.14
117 | G17U G63U U133A | -3.87
118 | C12G G65A | -3.6
119 | A41G G61A C101U U133G | -1.01
120 | C11G C53U G61A G107A | -5.9

Row | Variant | polymerase ribozyme fitness (log ratio)
121 | C34G C53U C73U G113C C114G | -8.55
122 | C13G C34U | -6.06
123 | A37U A46U | -2.98
124 | U55G G58C C79A | -3.4
125 | C34G A111G U129G | -6.92
126 | G61C U109A | -4.34
127 | C88G G128C | -3.43
128 | C86A C101U | -0.0895
129 | A2U G120C G135A | 0.456
130 | A43U C115U | -1.87
131 | C97U U106A U132G U133A | 0.00837
132 | C12A G51U C64U A90G | -2.6
133 | G17U C97U | -3.45
134 | C85G U106G | -2.45
135 | A6U C15A C56A A105C | -4.85
136 | C56U C97A | -4.36
137 | A16U G23U G61A A84C C114A G117U | -6.96
138 | G42A C124A | -0.186
139 | A29C A46U U54G U78C G120U | -3.43
140 | C12A A121U | 1.74
141 | U21C A90C | -1.17
142 | G10A A29U C72A C88G U116G | -3.97
143 | G36U G47U | -2.97
144 | G71A G127A | -2.33

Row | Variant | polymerase ribozyme fitness (log ratio)
145 | C11U U78G A95C G113U C114G | -4.56
146 | A6G C76A C79A G120C | 0.0381
147 | U9A G48C G77A C88U U112A | 0.603
148 | C13A C72G C82A C94U G110A | -3.05
149 | C8A C28A G45A C56G G69U | -2.82
150 | G25U C53A G69U G107A U116G C123U | -7.07
151 | G58C C76U C104A G113U A119C | -6.29
152 | C11U C20A G42C C102U U112C C124G | -5.12
153 | C12A G47C C70U | -0.753
154 | G48U C88U | -1.36
155 | C11A C31U C40U G47C C62U G107A | -4.34
156 | G35C U38G G63C C123A U129A | -5.52
157 | C20U C49U C56G U78G U81A C86U U133G | -3.51
158 | G36U G117U | -3.26
159 | A2G C12U | -0.378
160 | C53G U87G C97U G117U | -4.2
161 | G63U C94G | -1.4
162 | C64U G71U C88U | -5.13
163 | G45U C62U G107U U116C | -5.58
164 | A43C C56A U59A C72U | -3.55
165 | G25U G69U C102U A121U | -5.66
166 | A37U A50U C94U | -1.81
167 | G71U A100U | -1.2
